This is an account of results in article PMC3546728, “Bacterial Over-Expression and Purification of the 3′phosphoadenosine 5′phosphosulfate (PAPS) Reductase Domain of Human FAD Synthase: Functional Characterization and Homology Modeling” (International Journal of Molecular Sciences, 2012).

What all share (test): purified protein
What all share (assay type): biochemical, Homo sapiens

The test system of data set [1] is T1, Nc1ncnc2c1ncn2[C@@H]1O[C@H](COP(=O)(O)OP(=O)(O)OP(=O)(O)O)[C@@H](O)[C@H]1O.
T1 construct: C-terminal PAPS reductase domain, residues 329-587; vector pH6EX3; E. coli Rosetta (DE3); theoretical 31499 Da, ~28 kDa on SDS-PAGE
The note with it: 2 μM FMN, 5 mM MgCl2, 50 mM Tris/HCl pH 7.5, 37 °C.

Another data set concerns T2, O=P(O)(O)OP(=O)(O)O.
T2 construct: C-terminal PAPS reductase domain, residues 329-587; vector pH6EX3; E. coli Rosetta (DE3); theoretical 31499 Da, ~28 kDa on SDS-PAGE
The note with it: reverse reaction, 0.5 μM FAD, 5 mM MgCl2, 50 mM Tris/HCl pH 7.5, 37 °C.

Data set [2] has as its system T3, Cc1cc2nc3c(=O)[nH]c(=O)nc-3n(C[C@H](O)[C@H](O)[C@H](O)COP(=O)(O)O)c2cc1C.
T3 construct: C-terminal PAPS reductase domain, residues 329-587; vector pH6EX3; E. coli Rosetta (DE3); theoretical 31499 Da, ~28 kDa on SDS-PAGE
The note with it: 100 μM ATP, 5 mM MgCl2, 50 mM Tris/HCl pH 7.5, 37 °C.

6-His-Δ1-328-hFADS (Homo sapiens), sequence (chain, as listed by the source mutant): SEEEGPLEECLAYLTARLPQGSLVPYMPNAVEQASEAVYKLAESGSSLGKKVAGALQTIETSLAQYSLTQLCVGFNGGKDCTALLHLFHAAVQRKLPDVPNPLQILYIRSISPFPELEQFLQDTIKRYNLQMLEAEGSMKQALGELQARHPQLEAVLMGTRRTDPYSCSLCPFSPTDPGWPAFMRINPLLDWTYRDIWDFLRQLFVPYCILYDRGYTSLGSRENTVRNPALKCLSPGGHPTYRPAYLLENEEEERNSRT

One may read the Km as the substrate concentration at which the rate is half of its maximum. In general, kcat refers to the maximal rate divided by the concentration of active sites. Regarding 6-His-Δ1-328-hFADS (Homo sapiens), the Km in data set [1] turned out to be 6.23 ± 1.5 µM; with O=P(O)(O)OP(=O)(O)O, 92.0 ± 0.5 µM; in data set [2], 0.24 ± 0.06 µM. In addition, the kcat in data set [1] is 0.042 ± 0.001 s⁻¹; in the data set with O=P(O)(O)OP(=O)(O)O it was 0.0037 ± 0.0009 s⁻¹; in data set [2], 0.042 ± 0.001 s⁻¹.
